{"source": "patent US20200262927A1", "about": "(OXFORD BIOTHERAPEUTICS, published 2020)", "binders": {"B1": {"name": "humanised 5A11 antibody (antibody, V domains shown)", "VH": "EVQLVESGGGLVQPGGSLKLSCAASGFTFSDAAMYWVRQASGKGLEWVARIRTKTNNYAAHYVESVKGRFTVSRDDSKNTVYLQMNSLKTEDTAMYYCTSVPQGTQDYWGQGTLVTVSS", "VL": "SYELTQPSSVSVSPGQTARITCSGDVLSKRYAQWSQQKPGQAIVSVIYKDSERPSGIPERFSGSSSGTTATLTISGAQVEDEADYYCLSTYADDNLPVFGGGTKLTVL", "notes": "Captured on anti-human IgG Fc biosensors, so it carried a human IgG Fc; also called humanized antibody 5A11"}}, "key": {"[1]": {"biological_target": "T1, Recombinant hCRTAM/Fc Chimera (R&D Systems, Catalogue 1695-CR) (human, UniProt O95727 18-286)", "T1 construct": "also called human recombinant hCRTAM/Fc chimera; Fc part of the bought chimera not given", "T1 sequence": "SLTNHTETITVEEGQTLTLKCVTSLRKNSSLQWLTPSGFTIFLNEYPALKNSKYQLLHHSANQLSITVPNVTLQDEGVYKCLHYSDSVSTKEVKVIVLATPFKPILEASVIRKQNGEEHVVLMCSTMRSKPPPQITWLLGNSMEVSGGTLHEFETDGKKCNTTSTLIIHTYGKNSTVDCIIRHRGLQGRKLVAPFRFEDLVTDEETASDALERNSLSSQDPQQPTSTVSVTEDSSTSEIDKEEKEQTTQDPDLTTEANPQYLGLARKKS", "test": "Octet BLI, antibody captured on anti-human IgG Fc biosensors, hCRTAM/Fc chimera as analyte from 200 nM diluted 1:3, global 1:1 fit", "method": "(§1) Anti-human IgG-Fc Capture (AHC) ForteBio biosensors were loaded with the test antibodies at a concentration of 1 μg/mL over 300 seconds.\n(§2) The loaded biosensors were incubated with 5 concentrations of human recombinant hCRTAM/Fc chimera starting at 200 nM, which was serially diluted 1:3; a reference well contained kinetic buffer only (to correct for drift).\n(§3) The data from all concentrations were fit using a global 1:1 curve fit for each sample. Where possible the kinetic association and dissociation rates and the KD values were determined."}, "[2]": {"biological_target": "T1, Recombinant hCRTAM/Fc Chimera (R&D …)", "test": "Octet BLI, antibody captured on anti-human IgG Fc biosensors, hCRTAM/Fc chimera as analyte, global 1:1 fit", "method": "as §1, §2, §3"}}, "data": [{"binder": "B1", "values": [{"measurement": "Kd", "setting": "[1]", "value": 0.439, "unit": "nM"}, {"measurement": "koff", "setting": "[2]", "value": 0.00011, "unit": "s⁻¹"}, {"measurement": "kon", "setting": "[2]", "value": 249000, "unit": "M⁻¹ s⁻¹"}]}]}
